Assay results from the supplement of paper PMC10567573.

B1: FBF1 (parent)
chain: FGDSPKAEKRQIGDQEGPRPARST
B2: INTS3 (parent)
chain: DLNSKGKKREFRFHPIKETVVEEP

Variants of: B1
Experiment: protein stability index of a GFP-peptide fusion (GPS, HEK-293T) (PSI 1-6); higher = more stable
Settings: c terminus: a fixed tail appended
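Further: lentivirally expressed fusions sorted by FACS into six bins by GFP to DsRed ratio, PSI derived from sequencing read proportions per bin multiplied by bin number.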

Protein stability index of substitutions, site by site:
E8: T 3.77 | Y 3.39
K9: A 4.97 | D 5.52 | E 5.1 | F 4.43 | G 5.2 | H 5.22 | I 5.23 | N 5.93 | P 5.54 | Q 5.53 | R 5.46 | S 5.47 | T 5.17 | V 4.89 | Y 4.74
R10: A 5.42 | C 5.02 | D 5.29 | E 5.63 | H 4.63 | I 5.19 | K 4.76 | L 4.59 | M 5.06 | N 5.42 | Q 4.86 | S 5.44 | T 5.58 | W 3.46 | Y 4.97
Q11: A 5.6 | C 5.06 | D 5.29 | E 5.33 | F 3.59 | G 5.34 | H 5.16 | I 4.61 | K 4.86 | L 4.7 | M 5.22 | N 5.38 | P 5.25 | S 5.29 | T 5 | V 5.08 | W 3.76 | Y 4.45
I12: A 4.73 | C 2.83 | D 4.89 | E 5.27 | F 4.47 | G 5.03 | L 4.78 | M 5.04 | N 5.5 | P 5.12 | Q 5.5 | R 5.17 | S 5.47 | T 4.32 | V 5.4 | Y 4.24
G13: A 4.98 | C 5.04 | D 5.53 | E 5.34 | F 4.71 | H 4.69 | I 4.44 | K 5.24 | L 4.17 | M 4.24 | N 5.01 | P 5.16 | Q 5.45 | R 5.09 | S 4.82 | T 5.03 | V 4.54 | W 2.74 | Y 4.86
D14: A 4.87 | C 4.7 | E 5.03 | F 4.65 | G 4.71 | H 5 | I 4.38 | K 4.5 | L 4.68 | M 4.1 | N 5.15 | P 5.09 | Q 4.42 | R 4.82 | S 4.84 | T 5 | V 4.72 | W 4 | Y 4.54
Q15: C 4.23 | D 5.65 | F 4.32 | H 3.53 | I 4.65 | M 5.03 | N 4.69 | P 5.38 | R 4.28 | S 5.72 | T 4.96 | V 4.81 | W 4.25 | Y 4.53
E16: A 4.55 | C 4.79 | D 5.75 | F 4.55 | G 3.41 | H 4.21 | I 4.83 | K 4.81 | L 4.66 | M 4.57 | N 4.98 | P 5.09 | Q 5.19 | R 5.02 | S 5.27 | T 5.03 | V 4.99 | W 3.48 | Y 4.14
G17: A 5.52 | C 4.94 | D 5.24 | E 5.34 | F 4.57 | H 4.83 | I 4.34 | K 5.02 | L 4.77 | M 4.83 | N 5.06 | P 5.54 | Q 5.15 | R 5.1 | S 5.46 | T 4.67 | V 4.42 | W 4.17 | Y 4.68
P18: A 5.27 | C 5.22 | D 5.48 | E 5.54 | F 4.85 | G 5.33 | H 4.77 | I 4.17 | K 5.21 | L 5.02 | M 4.71 | N 4.15 | Q 4.72 | R 4.78 | S 4.87 | T 4.69 | V 4.96 | Y 4.5
R19: C 5.4 | D 5.3 | E 5.73 | F 4.87 | G 5.13 | H 3.86 | I 5.08 | K 4.88 | L 4.9 | M 4.9 | N 5.34 | Q 4.91 | S 5.4 | T 4.23 | W 3.25 | Y 4.21
P20: A 5.25 | D 5.07 | E 5.58 | F 4.57 | G 3.96 | H 4.95 | I 4.84 | K 4.72 | L 4.46 | M 4.96 | N 4.89 | Q 5.39 | R 5.26 | S 5.02 | T 5.08 | V 4.54 | W 4.58 | Y 4.91
A21: C 5.2 | D 5.5 | F 4.52 | G 5.73 | H 4.93 | I 4.77 | K 5.23 | L 4.17 | M 4.92 | N 5.34 | P 5.19 | Q 5.62 | R 4.59 | S 4.37 | T 5.9 | V 5.42 | Y 4.86
R22: A 5.15 | C 5.26 | D 5.27 | E 4.79 | F 4.49 | G 4.92 | H 4.97 | I 5.46 | K 4.92 | L 5.38 | M 5.72 | N 5.66 | P 5.64 | Q 5.16 | S 5.4 | T 4.8 | W 3.86
S23: A 5.25 | C 4.66 | D 5.31 | E 5.03 | G 5.7 | H 5.53 | I 4.57 | K 4.29 | L 4.98 | M 5.01 | N 5.5 | P 4.67 | R 4.78 | T 5.12 | V 5 | Y 5.37
T24: A 4.91 | C 4.96 | D 4.52 | E 5.3 | F 4.83 | H 4.98 | I 4.45 | M 4.81 | N 5.34 | P 5.25 | Q 5.62 | R 4.68 | V 4.67 | W 4.34 | Y 4.74

Variants of: B2
Experiment: as above
Settings: c terminus: a fixed tail appended

Protein stability index of substitutions, site by site:
D1: A 2.01 | C 2.26 | E 2.43 | F 2.24 | G 2.23 | H 2.83 | I 1.28 | K 2.23 | L 2.23 | M 1.86 | N 1.56 | P 1.48 | Q 2.02 | R 1.97 | S 1.55 | T 1.52 | V 2.47 | Y 1.67
L2: A 2.73 | C 2.22 | D 2.82 | E 2.26 | F 2.2 | G 2.8 | H 2 | I 2.36 | K 2.09 | M 1.81 | N 2.96 | P 2.74 | Q 2.69 | R 2.34 | S 2.89 | T 2.28 | V 3.25 | W 1.9 | Y 1.89
N3: A 1.83 | C 1.78 | D 2.79 | E 2.9 | F 1.51 | G 2.2 | H 1.88 | I 1.88 | K 2.19 | L 2.16 | M 1.77 | P 1.87 | Q 2.33 | R 2.08 | S 1.76 | T 2.4 | V 1.53 | W 1.8 | Y 2.54
S4: A 2.42 | C 2.27 | D 2.6 | E 3.09 | F 2.77
